In US20120251547A1 (Amgen, published 2012):
Changes are numbered by the printed parent chain.

T1: chimera B
T1 construct: human IL-17RA extracellular domain with mouse Domain B; column head 75-96; also called Construct B
T1 IL-17RA extracellular domain with FLAG-polyHis tag: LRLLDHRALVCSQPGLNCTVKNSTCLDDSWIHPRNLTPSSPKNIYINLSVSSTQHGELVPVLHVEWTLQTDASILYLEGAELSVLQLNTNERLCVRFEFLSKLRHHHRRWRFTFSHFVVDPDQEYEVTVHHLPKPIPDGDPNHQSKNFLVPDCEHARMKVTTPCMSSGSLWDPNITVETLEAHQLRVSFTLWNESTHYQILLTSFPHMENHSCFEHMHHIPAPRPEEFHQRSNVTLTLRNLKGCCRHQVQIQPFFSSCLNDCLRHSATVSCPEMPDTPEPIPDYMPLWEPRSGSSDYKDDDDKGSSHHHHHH

T2: chimera H
T2 construct: human IL-17RA extracellular domain with mouse Domains B and E; also called Construct H
T2 IL-17RA extracellular domain with FLAG-polyHis tag: T1 IL-17RA extracellular domain with FLAG-polyHis tag with E181D, A182T, H183Q, Q184H, S188D

B1: AMH21/AML21 (antibody, IgG2, V domains shown)
VH: EVQLVESGGGSVQPGGSLRLSCAASGFTFSSYSMNWVRQAPGKGLEWVSIISSRSSIIHYADSVKGRFTISRDNAKNSLYLQMNSLRDEDTAVYYCARPKVGGGMDVWGQGTTVTVSS
VL: DIQMTQSPSSLSASVGDRVTITCRASQGISNYLAWYQQKPGKFPELLIYAASTLQSGVPSRFSGSGSGTDFTLTISSLQPEDVATYYCQKYNRAPFTFGPGTKVDIK
notes: human mAb from IgG2 XenoMouse mice; also called AM-21; antibody Q
B2: AMH20/AML20 (antibody, IgG2, V domains shown)
VH: B1 VH with S11L, I50F, S53A, I57T, H59Y
VL: B1 VL
notes: human mAb from IgG2 XenoMouse mice; also called AM-20; antibody R
B3: AMH18/AML18 (antibody, IgG2, V domains shown)
VH: QVQLVQSGAEVKKPGASVKVSCKASGYSFTDYYMHWVRQAPGQGLEWMGWMHPNSGGTDLAQRFQGRVTMTRDTSISTAYMELSRLRSDDTAVYYCARGGYCSTLSCSFYWYFDLWGRGTLVTVSS
VL: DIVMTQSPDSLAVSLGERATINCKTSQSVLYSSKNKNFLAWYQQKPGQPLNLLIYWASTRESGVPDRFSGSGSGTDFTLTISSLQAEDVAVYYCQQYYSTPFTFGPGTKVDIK
notes: human mAb from IgG2 XenoMouse mice; also called AM-18; antibody G

Assays:
[1] = molecular target: human IL-17RA, full-length, on cells (human, UniProt Q96F46 33-866); assay: cell-based or functional assay
[2] = molecular target: human IL-17RA (form used in the low resolution BIAcore not stated) (human, UniProt Q96F46 33-320, limits assumed); assay: low resolution BIAcore, subcloned hybridoma
[3] = molecular target: T3, huIL-17RA-FLAG-polyHis (human, UniProt Q96F46 33-320); assay: binning; IL-17RA held by bead mAb A
T3 construct: also called IL-17RA-FLAG-pHis; wild-type IL-17RA

[4] = molecular target: T3, huIL-17RA-FLAG-polyHis; assay: binning; IL-17RA held by bead mAb B
[5] = molecular target: T3, huIL-17RA-FLAG-polyHis; assay: binning; IL-17RA held by bead mAb C
[6] = molecular target: T3, huIL-17RA-FLAG-polyHis; assay: binning; IL-17RA held by bead mAb D
[7] = molecular target: T3, huIL-17RA-FLAG-polyHis; assay: binning; IL-17RA held by bead mAb E
[8] = molecular target: T3, huIL-17RA-FLAG-polyHis; assay: binning; IL-17RA held by bead mAb F
[9] = molecular target: T3, huIL-17RA-FLAG-polyHis; assay: binning; IL-17RA held by bead mAb H
[10] = molecular target: T3, huIL-17RA-FLAG-polyHis; assay: binning; IL-17RA held by bead mAb G
[11] = molecular target: T3, huIL-17RA-FLAG-polyHis; assay: binning; IL-17RA held by bead mAb I
[12] = molecular target: T3, huIL-17RA-FLAG-polyHis; assay: binning; IL-17RA held by bead mAb J
[13] = molecular target: T3, huIL-17RA-FLAG-polyHis; assay: binning; IL-17RA held by bead mAb L
[14] = molecular target: T3, huIL-17RA-FLAG-polyHis; assay: binning; IL-17RA held by bead mAb N
[15] = molecular target: T3, huIL-17RA-FLAG-polyHis; assay: binning; IL-17RA held by bead mAb Q
[16] = molecular target: T3, huIL-17RA-FLAG-polyHis; assay: binning; IL-17RA held by bead mAb R
[17] = molecular target: T4, chimera A; assay: Bio-Plex titration on His-captured chimera;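 note: binding of anti-IL-17RA antibodies (4-fold titration across about 5 logs, 1 h) to His-captured IL-17RA chimeras on multiplexed beads, MFI read as percent of maximal wild-type human IL-17RA signal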
T4 construct: human IL-17RA extracellular domain with mouse Domain A; column head aa 38-51; also called Construct A

[18] = molecular target: T5, chimera L; assay: Bio-Plex titration on His-captured chimera;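 note: binding of anti-IL-17RA antibodies (4-fold titration across about 5 logs, 1 h) to His-captured IL-17RA chimeras on multiplexed beads, MFI read as percent of maximal wild-type human IL-17RA signal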
T5 construct: human IL-17RA extracellular domain with mouse Domains B and F; B+F; also called Construct L

[19] = molecular target: T1, chimera B; assay: Bio-Plex titration on His-captured chimera;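 note: binding of anti-IL-17RA antibodies (4-fold titration across about 5 logs, 1 h) to His-captured IL-17RA chimeras on multiplexed beads, MFI read as percent of maximal wild-type human IL-17RA signal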
[20] = molecular target: T6, chimera C; assay: Bio-Plex titration on His-captured chimera;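 note: binding of anti-IL-17RA antibodies (4-fold titration across about 5 logs, 1 h) to His-captured IL-17RA chimeras on multiplexed beads, MFI read as percent of maximal wild-type human IL-17RA signal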
T6 construct: human IL-17RA extracellular domain with mouse Domain C; also called Construct C

[21] = molecular target: T7, chimera E; assay: Bio-Plex titration on His-captured chimera
T7 construct: human IL-17RA extracellular domain with mouse Domain E; also called Construct E

[22] = molecular target: T8, chimera G; assay: Bio-Plex titration on His-captured chimera
T8 construct: human IL-17RA extracellular domain with mouse Domains A and E; also called Construct G

[23] = molecular target: T2, chimera H; assay: Bio-Plex titration on His-captured chimera
[24] = molecular target: T9, chimera I; assay: Bio-Plex titration on His-captured chimera
T9 construct: human IL-17RA extracellular domain with mouse Domains C and E; also called Construct I

Binder	Kd [2] [nM]	normalized MFI [3]	normalized MFI [4]	normalized MFI [5]	normalized MFI [6]	normalized MFI [7]	normalized MFI [8]	normalized MFI [9]	normalized MFI [10]	normalized MFI [11]	normalized MFI [12]	normalized MFI [13]	normalized MFI [14]	normalized MFI [15]	normalized MFI [16]	EC50 [17] [nM]	EC50 [19] [nM]	EC50 [20] [nM]	EC50 [21] [nM]	EC50 [22] [nM]	also measured
B1	16.7	9530	1900	4770	1380	1170	2200	10200	6280	2.5	23	-58	39	100	34	0.018	0.017	0.03	0.026	0.025	IL-17A/HFF bioassay IC50, subclone 4 [1]: 2.3 nM; IL-17A/HFF bioassay IC50, subclone 5 [1]: 3.1 nM; IL-17A/HFF bioassay IC50, subclone 6 [1]: 3.3 nM; EC50 [18]: 0.025 nM; EC50 [23]: 0.025 nM; EC50 [24]: 0.032 nM
B2	11.6	6800	1060	2990	783	666	1240	8300	4020	58	26	15	24	60	25	0.023	0.02	0.04	0.027	0.027	IL-17A/HFF bioassay IC50, subclone 7 [1]: 8.1 nM; IL-17A/HFF bioassay IC50, subclone 8 [1]: 6.6 nM; IL-17A/HFF bioassay IC50, subclone 9 [1]: 6.7 nM; EC50 [18]: 0.027 nM; EC50 [23]: 0.033 nM; EC50 [24]: 0.042 nM
B3	14.9	-162	1300	354	344	260	304	4000	480	6890	2900	3590	3230	7850	5110	0.052	0.063	0.052	0.067	0.052	IL-17A/HFF bioassay IC50, subclone 14 [1]: 0.44 nM; IL-17A/HFF bioassay IC50, subclone 15 [1]: 0.4 nM; IL-17A/HFF bioassay IC50, subclone 16 [1]: 0.17 nM; binding result [18]: no binding; EC50 [23]: 0.088 nM; EC50 [24]: 0.059 nM
